In patent US20240174740A1 (EYEPOINT PHARMACEUTICALS, published 2024):

T1: poly-histidine tagged HPTP-β extracellular domain (ECD) 1/2 (human, UniProt P23467 23-730, limits assumed)
T1 construct: domain: extracellular domain (ECD) 1/2; Captured on the Biacore chip through goat anti-His antibody; also called His-tagged ligand HPTP-β 1/2 ECD; not shown: poly-histidine tag
T1 sequence (looked up): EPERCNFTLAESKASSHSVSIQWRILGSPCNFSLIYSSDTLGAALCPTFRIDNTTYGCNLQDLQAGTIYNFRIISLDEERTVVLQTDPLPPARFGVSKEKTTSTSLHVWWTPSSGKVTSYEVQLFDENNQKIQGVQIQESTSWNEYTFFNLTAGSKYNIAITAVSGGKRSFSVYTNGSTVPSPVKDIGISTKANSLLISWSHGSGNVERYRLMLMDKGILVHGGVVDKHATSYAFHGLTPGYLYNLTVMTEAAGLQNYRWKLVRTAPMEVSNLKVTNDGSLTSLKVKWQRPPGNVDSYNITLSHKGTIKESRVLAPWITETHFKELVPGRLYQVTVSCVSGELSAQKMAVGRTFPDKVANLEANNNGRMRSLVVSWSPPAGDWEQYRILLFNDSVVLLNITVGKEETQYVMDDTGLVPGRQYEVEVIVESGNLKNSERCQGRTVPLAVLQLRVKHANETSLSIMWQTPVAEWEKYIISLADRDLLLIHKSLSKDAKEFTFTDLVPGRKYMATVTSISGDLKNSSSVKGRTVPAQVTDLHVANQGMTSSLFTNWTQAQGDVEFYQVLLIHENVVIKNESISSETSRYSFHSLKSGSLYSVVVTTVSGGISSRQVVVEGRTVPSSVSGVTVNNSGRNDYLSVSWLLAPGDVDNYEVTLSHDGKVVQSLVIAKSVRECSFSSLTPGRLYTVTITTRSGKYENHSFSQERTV

B1: HC2:LC1-AFL (bispecific antibody, human IgG4 S228P, kappa)
heavy: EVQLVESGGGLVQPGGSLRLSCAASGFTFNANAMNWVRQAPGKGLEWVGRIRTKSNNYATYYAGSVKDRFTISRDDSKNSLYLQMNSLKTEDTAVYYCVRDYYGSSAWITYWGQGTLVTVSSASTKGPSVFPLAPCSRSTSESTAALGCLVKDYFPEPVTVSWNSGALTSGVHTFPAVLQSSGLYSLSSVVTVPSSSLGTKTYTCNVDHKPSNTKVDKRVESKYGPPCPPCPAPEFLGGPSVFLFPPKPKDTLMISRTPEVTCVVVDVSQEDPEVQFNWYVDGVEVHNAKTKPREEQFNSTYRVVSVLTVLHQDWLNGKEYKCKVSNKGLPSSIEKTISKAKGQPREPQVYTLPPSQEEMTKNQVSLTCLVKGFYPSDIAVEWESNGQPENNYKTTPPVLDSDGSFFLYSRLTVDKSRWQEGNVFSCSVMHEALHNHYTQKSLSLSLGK
light: DVVMTQSPSFLSASVGDRVTITCKASQHVGTAVAWYQQRPGKAPKLLIYWASTRHTGVPSRFSGSGSGTEFTLTISSLQPEDFATYFCQQYSSYPFTFGGGTKLEIKRTVAAPSVFIFPPSDEQLKSGTASVVCLLNNFYPREAKVQWKVDNALQSGNSQESVTEQDSKDSTYSLSSTLTLSKADYEKHKVYACEVTHQGLSSPVTKSFNRGECGGGGSSDTGRPFVEMYSEIPEIIHMTEGRELVIPCRVTSPNITVTLKKFPLDTLIPDGKRIIWDSRKGFIISNATYKEIGLLTCEATVNGHLYKTNYLTHRQTNTIIDVVLSPSHGIELSVGEKLVLNCTARTELNVGIDFNWEYPSSKHQHKKLVNRDLKTQSGSEMKKFLSTLTIDGVTRSDQGLYTCAASSGLMTKKNSTFVRVHEK
B2: HC2-AFL:LC1-AFL (bispecific antibody, human IgG4 S228P, kappa)
heavy: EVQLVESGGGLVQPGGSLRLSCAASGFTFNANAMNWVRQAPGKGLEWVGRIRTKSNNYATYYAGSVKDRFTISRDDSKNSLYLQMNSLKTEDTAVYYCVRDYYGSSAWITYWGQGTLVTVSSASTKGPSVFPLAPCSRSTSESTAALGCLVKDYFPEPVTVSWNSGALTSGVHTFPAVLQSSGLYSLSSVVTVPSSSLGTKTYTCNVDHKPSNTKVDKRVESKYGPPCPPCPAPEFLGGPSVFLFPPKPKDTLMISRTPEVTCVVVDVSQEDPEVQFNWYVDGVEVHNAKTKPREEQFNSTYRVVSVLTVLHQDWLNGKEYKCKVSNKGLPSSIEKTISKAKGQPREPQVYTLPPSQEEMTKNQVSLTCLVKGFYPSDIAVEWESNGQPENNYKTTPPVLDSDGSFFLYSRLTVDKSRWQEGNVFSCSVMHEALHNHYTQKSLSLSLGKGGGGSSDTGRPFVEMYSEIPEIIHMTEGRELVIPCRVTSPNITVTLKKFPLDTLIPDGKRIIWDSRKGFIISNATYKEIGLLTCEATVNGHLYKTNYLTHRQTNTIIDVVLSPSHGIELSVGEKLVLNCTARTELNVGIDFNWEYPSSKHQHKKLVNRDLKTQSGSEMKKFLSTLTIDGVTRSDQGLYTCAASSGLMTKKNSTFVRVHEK
light: DVVMTQSPSFLSASVGDRVTITCKASQHVGTAVAWYQQRPGKAPKLLIYWASTRHTGVPSRFSGSGSGTEFTLTISSLQPEDFATYFCQQYSSYPFTFGGGTKLEIKRTVAAPSVFIFPPSDEQLKSGTASVVCLLNNFYPREAKVQWKVDNALQSGNSQESVTEQDSKDSTYSLSSTLTLSKADYEKHKVYACEVTHQGLSSPVTKSFNRGECGGGGSSDTGRPFVEMYSEIPEIIHMTEGRELVIPCRVTSPNITVTLKKFPLDTLIPDGKRIIWDSRKGFIISNATYKEIGLLTCEATVNGHLYKTNYLTHRQTNTIIDVVLSPSHGIELSVGEKLVLNCTARTELNVGIDFNWEYPSSKHQHKKLVNRDLKTQSGSEMKKFLSTLTIDGVTRSDQGLYTCAASSGLMTKKNSTFVRVHEK
B3: HC2-AFL:LC1 (bispecific antibody, human IgG4 S228P, kappa)
heavy: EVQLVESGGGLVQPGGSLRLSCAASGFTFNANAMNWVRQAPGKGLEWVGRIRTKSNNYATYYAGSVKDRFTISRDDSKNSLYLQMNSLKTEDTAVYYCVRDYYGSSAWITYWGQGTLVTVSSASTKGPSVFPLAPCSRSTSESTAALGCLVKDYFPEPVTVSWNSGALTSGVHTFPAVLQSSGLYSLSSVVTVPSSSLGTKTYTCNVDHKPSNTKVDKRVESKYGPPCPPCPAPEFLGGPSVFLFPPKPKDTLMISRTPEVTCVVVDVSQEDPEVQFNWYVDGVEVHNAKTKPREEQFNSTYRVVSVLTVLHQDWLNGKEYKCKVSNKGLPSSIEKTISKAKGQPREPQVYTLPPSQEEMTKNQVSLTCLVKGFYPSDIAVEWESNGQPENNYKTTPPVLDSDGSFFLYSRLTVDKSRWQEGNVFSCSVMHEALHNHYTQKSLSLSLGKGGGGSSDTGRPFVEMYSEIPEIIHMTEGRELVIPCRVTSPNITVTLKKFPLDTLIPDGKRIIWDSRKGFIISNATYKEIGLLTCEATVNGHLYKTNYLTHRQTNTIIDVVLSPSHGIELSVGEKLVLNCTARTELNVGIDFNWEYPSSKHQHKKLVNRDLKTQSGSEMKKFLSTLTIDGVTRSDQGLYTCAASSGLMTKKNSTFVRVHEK
light: DVVMTQSPSFLSASVGDRVTITCKASQHVGTAVAWYQQRPGKAPKLLIYWASTRHTGVPSRFSGSGSGTEFTLTISSLQPEDFATYFCQQYSSYPFTFGGGTKLEIKRTVAAPSVFIFPPSDEQLKSGTASVVCLLNNFYPREAKVQWKVDNALQSGNSQESVTEQDSKDSTYSLSSTLTLSKADYEKHKVYACEVTHQGLSSPVTKSFNRGEC
B4: HC2-BRO:LC1 (bispecific antibody, human IgG4 S228P, kappa)
heavy: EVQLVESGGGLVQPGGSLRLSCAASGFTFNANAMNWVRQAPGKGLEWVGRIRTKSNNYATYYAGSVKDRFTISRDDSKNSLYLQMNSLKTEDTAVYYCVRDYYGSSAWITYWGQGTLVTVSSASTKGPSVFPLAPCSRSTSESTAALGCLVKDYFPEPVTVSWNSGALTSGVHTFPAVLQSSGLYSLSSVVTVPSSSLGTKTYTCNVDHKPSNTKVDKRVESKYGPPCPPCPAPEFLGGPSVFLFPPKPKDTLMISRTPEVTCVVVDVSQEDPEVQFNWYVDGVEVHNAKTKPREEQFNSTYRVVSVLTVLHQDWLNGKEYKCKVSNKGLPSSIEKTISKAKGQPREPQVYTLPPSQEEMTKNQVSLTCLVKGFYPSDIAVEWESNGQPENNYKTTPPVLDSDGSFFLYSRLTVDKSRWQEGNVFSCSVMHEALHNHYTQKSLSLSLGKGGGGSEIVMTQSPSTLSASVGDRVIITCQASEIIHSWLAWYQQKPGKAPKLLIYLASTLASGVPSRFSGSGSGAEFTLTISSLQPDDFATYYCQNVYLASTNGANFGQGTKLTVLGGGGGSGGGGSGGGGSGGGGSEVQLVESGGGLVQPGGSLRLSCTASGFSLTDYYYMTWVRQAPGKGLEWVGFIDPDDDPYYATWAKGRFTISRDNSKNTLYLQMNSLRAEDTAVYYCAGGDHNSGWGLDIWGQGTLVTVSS
light: DVVMTQSPSFLSASVGDRVTITCKASQHVGTAVAWYQQRPGKAPKLLIYWASTRHTGVPSRFSGSGSGTEFTLTISSLQPEDFATYFCQQYSSYPFTFGGGTKLEIKRTVAAPSVFIFPPSDEQLKSGTASVVCLLNNFYPREAKVQWKVDNALQSGNSQESVTEQDSKDSTYSLSSTLTLSKADYEKHKVYACEVTHQGLSSPVTKSFNRGEC
B5: HC2-ABI:LC1 (bispecific antibody, human IgG4 S228P, kappa)
heavy: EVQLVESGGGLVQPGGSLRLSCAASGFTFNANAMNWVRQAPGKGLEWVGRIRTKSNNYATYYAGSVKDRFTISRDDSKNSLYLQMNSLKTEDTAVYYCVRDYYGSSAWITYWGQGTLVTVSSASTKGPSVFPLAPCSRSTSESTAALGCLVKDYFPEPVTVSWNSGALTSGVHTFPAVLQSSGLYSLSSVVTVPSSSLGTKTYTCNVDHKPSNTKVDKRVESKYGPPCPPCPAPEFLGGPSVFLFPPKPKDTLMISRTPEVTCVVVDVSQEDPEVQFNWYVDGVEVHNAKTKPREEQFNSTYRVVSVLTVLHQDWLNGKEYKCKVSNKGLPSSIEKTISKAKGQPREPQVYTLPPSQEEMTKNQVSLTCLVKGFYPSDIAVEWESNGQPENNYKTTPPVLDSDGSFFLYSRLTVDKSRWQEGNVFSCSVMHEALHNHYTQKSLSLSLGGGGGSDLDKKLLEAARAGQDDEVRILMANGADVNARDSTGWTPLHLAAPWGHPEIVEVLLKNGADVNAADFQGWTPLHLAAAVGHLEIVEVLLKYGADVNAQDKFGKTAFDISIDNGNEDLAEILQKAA
light: DVVMTQSPSFLSASVGDRVTITCKASQHVGTAVAWYQQRPGKAPKLLIYWASTRHTGVPSRFSGSGSGTEFTLTISSLQPEDFATYFCQQYSSYPFTFGGGTKLEIKRTVAAPSVFIFPPSDEQLKSGTASVVCLLNNFYPREAKVQWKVDNALQSGNSQESVTEQDSKDSTYSLSSTLTLSKADYEKHKVYACEVTHQGLSSPVTKSFNRGEC
B6: HC2-RAN:LC1 (bispecific antibody, human IgG4 S228P, kappa)
heavy: not shown
light: DVVMTQSPSFLSASVGDRVTITCKASQHVGTAVAWYQQRPGKAPKLLIYWASTRHTGVPSRFSGSGSGTEFTLTISSLQPEDFATYFCQQYSSYPFTFGGGTKLEIKRTVAAPSVFIFPPSDEQLKSGTASVVCLLNNFYPREAKVQWKVDNALQSGNSQESVTEQDSKDSTYSLSSTLTLSKADYEKHKVYACEVTHQGLSSPVTKSFNRGEC
notes: also called HC2-RBZ:LC1; tetravalent bispecific antibody with ranibizumab-derived scFv on the heavy chain C-termini
B7: HC2:LC1-BRO (bispecific antibody, human IgG4 S228P, kappa)
heavy: not shown
light: DVVMTQSPSFLSASVGDRVTITCKASQHVGTAVAWYQQRPGKAPKLLIYWASTRHTGVPSRFSGSGSGTEFTLTISSLQPEDFATYFCQQYSSYPFTFGGGTKLEIKRTVAAPSVFIFPPSDEQLKSGTASVVCLLNNFYPREAKVQWKVDNALQSGNSQESVTEQDSKDSTYSLSSTLTLSKADYEKHKVYACEVTHQGLSSPVTKSFNRGECGGGGSEIVMTQSPSTLSASVGDRVIITCQASEIIHSWLAWYQQKPGKAPKLLIYLASTLASGVPSRFSGSGSGAEFTLTISSLQPDDFATYYCQNVYLASTNGANFGQGTKLTVLGGGGGSGGGGSGGGGSGGGGSEVQLVESGGGLVQPGGSLRLSCTASGFSLTDYYYMTWVRQAPGKGLEWVGFIDPDDDPYYATWAKGRFTISRDNSKNTLYLQMNSLRAEDTAVYYCAGGDHNSGWGLDIWGQGTLVTVSS
B8: HC2-BRO:LC1-BRO (bispecific antibody, human IgG4 S228P, kappa)
heavy: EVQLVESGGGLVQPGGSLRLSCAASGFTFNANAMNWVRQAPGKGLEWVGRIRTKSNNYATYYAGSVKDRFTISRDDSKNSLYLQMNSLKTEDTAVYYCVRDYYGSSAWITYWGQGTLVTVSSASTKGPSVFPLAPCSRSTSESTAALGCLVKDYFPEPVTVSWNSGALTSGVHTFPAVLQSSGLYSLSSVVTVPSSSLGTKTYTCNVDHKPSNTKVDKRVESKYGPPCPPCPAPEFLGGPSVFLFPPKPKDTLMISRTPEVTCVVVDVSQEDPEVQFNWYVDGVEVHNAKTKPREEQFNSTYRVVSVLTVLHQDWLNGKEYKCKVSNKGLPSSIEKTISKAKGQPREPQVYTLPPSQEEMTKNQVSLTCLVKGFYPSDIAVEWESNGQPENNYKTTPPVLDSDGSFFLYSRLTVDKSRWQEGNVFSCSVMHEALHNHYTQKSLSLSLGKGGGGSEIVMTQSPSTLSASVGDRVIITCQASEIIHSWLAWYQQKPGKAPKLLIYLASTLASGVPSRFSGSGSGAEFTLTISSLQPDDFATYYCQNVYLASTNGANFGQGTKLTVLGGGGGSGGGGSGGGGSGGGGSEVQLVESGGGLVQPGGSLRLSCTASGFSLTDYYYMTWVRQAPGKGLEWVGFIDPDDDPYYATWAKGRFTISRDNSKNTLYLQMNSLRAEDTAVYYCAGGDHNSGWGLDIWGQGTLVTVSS
light: DVVMTQSPSFLSASVGDRVTITCKASQHVGTAVAWYQQRPGKAPKLLIYWASTRHTGVPSRFSGSGSGTEFTLTISSLQPEDFATYFCQQYSSYPFTFGGGTKLEIKRTVAAPSVFIFPPSDEQLKSGTASVVCLLNNFYPREAKVQWKVDNALQSGNSQESVTEQDSKDSTYSLSSTLTLSKADYEKHKVYACEVTHQGLSSPVTKSFNRGECGGGGSEIVMTQSPSTLSASVGDRVIITCQASEIIHSWLAWYQQKPGKAPKLLIYLASTLASGVPSRFSGSGSGAEFTLTISSLQPDDFATYYCQNVYLASTNGANFGQGTKLTVLGGGGGSGGGGSGGGGSGGGGSEVQLVESGGGLVQPGGSLRLSCTASGFSLTDYYYMTWVRQAPGKGLEWVGFIDPDDDPYYATWAKGRFTISRDNSKNTLYLQMNSLRAEDTAVYYCAGGDHNSGWGLDIWGQGTLVTVSS
B9: HC2:LC1-ABI (bispecific antibody, human IgG4 S228P, kappa)
heavy: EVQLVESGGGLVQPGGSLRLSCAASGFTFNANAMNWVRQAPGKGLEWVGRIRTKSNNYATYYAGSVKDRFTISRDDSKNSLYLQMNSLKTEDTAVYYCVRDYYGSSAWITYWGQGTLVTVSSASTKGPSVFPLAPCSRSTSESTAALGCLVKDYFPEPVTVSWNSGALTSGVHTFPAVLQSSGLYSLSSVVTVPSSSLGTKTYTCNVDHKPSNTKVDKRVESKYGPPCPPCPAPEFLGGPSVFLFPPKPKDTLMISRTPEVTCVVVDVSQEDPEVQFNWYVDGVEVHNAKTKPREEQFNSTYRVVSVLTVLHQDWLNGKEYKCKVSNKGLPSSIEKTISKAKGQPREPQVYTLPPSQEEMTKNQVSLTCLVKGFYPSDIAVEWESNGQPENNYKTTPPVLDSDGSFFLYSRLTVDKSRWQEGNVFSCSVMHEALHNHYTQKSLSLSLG
light: DVVMTQSPSFLSASVGDRVTITCKASQHVGTAVAWYQQRPGKAPKLLIYWASTRHTGVPSRFSGSGSGTEFTLTISSLQPEDFATYFCQQYSSYPFTFGGGTKLEIKRTVAAPSVFIFPPSDEQLKSGTASVVCLLNNFYPREAKVQWKVDNALQSGNSQESVTEQDSKDSTYSLSSTLTLSKADYEKHKVYACEVTHQGLSSPVTKSFNRGECGGGGSDLDKKLLEAARAGQDDEVRILMANGADVNARDSTGWTPLHLAAPWGHPEIVEVLLKNGADVNAADFQGWTPLHLAAAVGHLEIVEVLLKYGADVNAQDKFGKTAFDISIDNGNEDLAEILQKAA
notes: The expressed entry minus its signal peptide is used here
B10: HC2-ABI:LC1-ABI (bispecific antibody, human IgG4 S228P, kappa)
heavy: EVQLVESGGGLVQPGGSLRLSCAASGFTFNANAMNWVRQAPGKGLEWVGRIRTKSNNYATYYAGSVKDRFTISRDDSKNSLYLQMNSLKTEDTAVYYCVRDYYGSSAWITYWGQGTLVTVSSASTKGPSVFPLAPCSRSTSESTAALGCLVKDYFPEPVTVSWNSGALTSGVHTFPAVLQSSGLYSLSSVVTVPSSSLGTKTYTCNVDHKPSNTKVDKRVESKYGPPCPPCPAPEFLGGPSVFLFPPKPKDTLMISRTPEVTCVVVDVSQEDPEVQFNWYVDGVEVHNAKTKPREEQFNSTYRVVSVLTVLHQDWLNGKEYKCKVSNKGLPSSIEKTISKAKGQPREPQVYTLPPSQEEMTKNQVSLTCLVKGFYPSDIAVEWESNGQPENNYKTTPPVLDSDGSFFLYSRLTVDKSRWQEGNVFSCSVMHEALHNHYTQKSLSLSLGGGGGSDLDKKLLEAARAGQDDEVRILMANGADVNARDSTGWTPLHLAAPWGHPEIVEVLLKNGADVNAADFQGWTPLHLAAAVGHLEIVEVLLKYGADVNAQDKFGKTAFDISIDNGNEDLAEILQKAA
light: DVVMTQSPSFLSASVGDRVTITCKASQHVGTAVAWYQQRPGKAPKLLIYWASTRHTGVPSRFSGSGSGTEFTLTISSLQPEDFATYFCQQYSSYPFTFGGGTKLEIKRTVAAPSVFIFPPSDEQLKSGTASVVCLLNNFYPREAKVQWKVDNALQSGNSQESVTEQDSKDSTYSLSSTLTLSKADYEKHKVYACEVTHQGLSSPVTKSFNRGECGGGGSDLDKKLLEAARAGQDDEVRILMANGADVNARDSTGWTPLHLAAPWGHPEIVEVLLKNGADVNAADFQGWTPLHLAAAVGHLEIVEVLLKYGADVNAQDKFGKTAFDISIDNGNEDLAEILQKAA

Columns and labels:
VEGF [1] = target: T2, VEGF (UniProt P15692-4 27-191, limits assumed); test: Biacore SPR, scouting at 10 nM analyte; antibody immobilised on CM5 chip, VEGF as analyte
T2 construct: also called vascular endothelial growth factor
T2 sequence (P15692 other isoform, or with tags, fused parts or gaps limits assumed): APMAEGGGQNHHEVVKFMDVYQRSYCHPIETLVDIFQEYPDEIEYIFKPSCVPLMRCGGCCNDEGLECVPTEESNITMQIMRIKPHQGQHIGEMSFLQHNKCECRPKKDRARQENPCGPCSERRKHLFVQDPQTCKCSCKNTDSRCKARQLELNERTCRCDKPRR
Description: (§1) The assay buffer contained 10 mM HEPES buffer (pH 7.4), 150 mM NaCl, 3 mM EDTA, and 0.05% P20 (polyoxyethylenesorbitan). […] The conjugation buffer contained 10 mM sodium acetate buffer (pH 5). A flow rate of 5 μL/minute was used for capturing ligand. A flow rate of 30 μL/minute was used for kinetic analysis.
(§2) For analysis of binding of the antibodies to VEGF, the antibodies were immobilized on the surface of the chip by direct immobilization using EDC/NHS coupling chemistry on flow cell 2 of the CM5 chip. Unoccupied sites were blocked with 1M ethanolamine. The analyte (VEGF) was flowed over the chip at a single analyte concentration at a time. The binding of analyte to the ligand was monitored in real time to obtain on (kₐ) and off (kd) rates. The equilibrium constant (KD) was calculated from the observed kₐ and kd.
(§3) Chi square analysis was carried out between the actual sensorgram and the sensorgram generated from the BIAnalysis software to confirm the accuracy of the analysis; values of 1-2 were considered accurate and below 1 highly accurate.

[2] = target: T1, poly-histidine tagged HPTP-β …; test: Biacore SPR, scouting at 10 nM analyte; His-tagged HPTP-β 1/2 ECD captured by anti-His, antibody as analyte
Description: as §1
(§4) For analysis of binding of antibodies to HPTP-β, poly-histidine tagged HPTP-β extracellular domain (ECD) 1/2 was immobilized on a chip surface via anti-His antibodies. Goat anti-His antibody was first immobilized on the surface of the chip by direct immobilization using EDC/NHS (N-ethyl-N′-(3-dimethyl aminopropyl carbodiimide)/N-hydroxy succinamide) coupling chemistry on flow cell 2 of the CM5 (Carboxymethylated dextran coated) chip. Unoccupied sites were blocked with 1M ethanolamine. The His-tagged ligand HPTP-β 1/2 ECD was captured at a response unit (RU) of 50. The analyte (antibody) was flowed over the chip at a single analyte concentration at a time. The binding of analyte to the ligand was monitored in real time to obtain on (kₐ) and off (kd) rates. The equilibrium constant (KD) was calculated from the observed kₐ and kd.
as §3

[3] = target: T1, poly-histidine tagged HPTP-β …; test: Biacore SPR, full kinetics at 0-10 nM analyte; His-tagged HPTP-β 1/2 ECD captured by anti-His, antibody as analyte
Description: as §1, §4
(§5) Chi square analysis was carried out between the actual sensorgram and the sensorgram generated from the BNAnalysis software to confirm the accuracy of the analysis; values of 1-2 were considered accurate and below 1 highly accurate.

VEGF [4] = target: T2, VEGF; test: Biacore SPR, full kinetics at 0-10 nM analyte; antibody immobilised on CM5 chip, VEGF as analyte
Description: as §1, §2, §5

[5] = target: T1, poly-histidine tagged HPTP-β …; test: Biacore SPR, scouting at 10 nM analyte; His-tagged HPTP-β 1/2 ECD captured by anti-His, antibody as analyte; scouting experiment at a single ligand concentration (Table 46), not full kinetics
Text: as §4, §3

Binder | Kd (VEGF [1]) [pM] | Kd [2] [pM] | Kd [3] [pM] | Kd (VEGF [4]) [pM] | Kd [5] [pM]
B1 | 825 | 467 |  |  | 
B2 | 557 | 69.4 |  |  | 
B3 | 350 | 320 | 219 | 46.3 | 
B4 | 0.112 | 325 | 154 | 0.218 | 
B5 | 0.11 | 122 | 1.03 | 0.04 | 
B6 |  |  |  |  | 0.586
B7 | 0.0351 | 309 |  |  | 
B8 | 1.79 | 3.5 |  |  | 
B9 | 519 | 61 |  |  | 
B10 | 680 | 205 |  |  | 
